Assay results taken from the supplement of paper PMC7877785.
± gives the uncertainty stated by the source.

Assay: self-splicing fitness, log relative to wild type (ln ratio); higher = more splicing; Tetrahymena group I intron in knt gene, E. coli kanamycin selection, DiMSum; sequences stand for … in CUCUCU…GGAGGGAAAAGUUAUCAGGCAUGCACCUGGUAGCUAGUCUUUAAACCAAUAGAUUGCAUCGGUUUAAAAGGCAAGACCGUCAAAUUGCGGGAAAGGGGUCAACAGCCGUUCAGUACCAAGUCUCAGGGGAAACUUUGAGAUGGCCUUGCAAAGGGUAUGGUAAUAAGCUGACGGACAUGGUCCUAACCACGCAGCCAAGUCCUAAGUCAACAGAUCUUCUGUUGAUAUGGAUGCAGUUCACAGACUAAAUGUCGGUCGGGGAAGAUGUAUUCUUCUCAUAAGAUAUAGUCGGACCUCUCCUUAAUGGGAGCUAGCGGAUGAAGUGAUGCAACACUGGAGCCGCUGGGAACUAAUUUGUAUGCGAAAGUAUAUUGAUUAGUUUUGGAGUACUCGUGGUCG
In short: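 A randomised library covering all eight P1ex-region intron nucleotides was built with the intron in the knt kanamycin-resistance gene on pET-22b(+) and held in E. coli BL21(DE3). Cells were grown overnight at 37°C or 30°C on LB agar, with or without 25 μg/mL kanamycin, plus 100 μg/mL carbenicillin, 50 μM IPTG and 0.2% rhamnose, and pooled colonies were amplicon-sequenced on an Illumina HiSeq 2500. DiMSum fitness is the error-weighted combination of wild-type-normalised replicate fold changes, kanamycin versus none.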

Sequence | self-splicing fitness (ln) (30 °C) | self-splicing fitness (ln) (37 °C)
GGGCAGCAAUAUUACGAUUU | -0.054 ± 0.053 | -0.281 ± 0.065
GCAGAGCAAUAUUACGAGUA | -3.23 ± 0.5 | -1.35 ± 0.43
UCCCAGCAAUAUUACGUCAG | -3.74 ± 0.16 | -2.83 ± 0.16
AGGCAGCAAUAUUACGUCAG | -1.92 ± 0.12 | -0.461 ± 0.12
CCAAAGCAAUAUUACGGCAG | -0.931 ± 0.074 | -0.49 ± 0.11
GGGAAGCAAUAUUACGCCUU | -1.8 ± 0.17 | 0.48 ± 0.15
CGAUAGCAAUAUUACGCCCG | -1.39 ± 0.18 | -1.44 ± 0.25
UCUCAGCAAUAUUACGAAUG | -1.73 ± 0.15 | -1.85 ± 0.26
UCACAGCAAUAUUACGAUUA | -1.43 ± 0.1 | -0.545 ± 0.11
CCAUAGCAAUAUUACGGUAU | -3.54 ± 0.24 | -1.34 ± 0.19
UCACAGCAAUAUUACGUAGA | -1.09 ± 0.063 | -0.0941 ± 0.075
UCCCAGCAAUAUUACGAUGC | -4.03 ± 0.3 | -3.29 ± 0.32
GGUUAGCAAUAUUACGGAGU | -1.27 ± 0.18 | -0.724 ± 0.2
UUAUAGCAAUAUUACGCGGC | -2.42 ± 0.49 | -2.4 ± 0.37
UUCCAGCAAUAUUACGCAGG | -3.53 ± 0.23 | -2.57 ± 0.36
AAAGAGCAAUAUUACGUCGA | -3.5 ± 0.27 | -2.09 ± 0.18
AUGAAGCAAUAUUACGAACA | -0.423 ± 0.1 | 0.795 ± 0.15
AAGGAGCAAUAUUACGUUAA | -3.12 ± 0.25 | -1.69 ± 0.19
CUUCAGCAAUAUUACGAGCG | -0.695 ± 0.058 | -0.136 ± 0.085
GGUAAGCAAUAUUACGCGUG | -2.42 ± 0.18 | -0.242 ± 0.15
UGCAAGCAAUAUUACGUGAA | -2.26 ± 0.1 | -1.03 ± 0.11
UGCUAGCAAUAUUACGCUCG | -1.2 ± 0.14 | -0.909 ± 0.17
CAGUAGCAAUAUUACGGAAU | -3.7 ± 0.27 | -2.55 ± 0.18
CCUAAGCAAUAUUACGUCCU | -3.74 ± 0.33 | -2.04 ± 0.24
UUCGAGCAAUAUUACGACGU | -3.55 ± 0.24 | -1.85 ± 0.14
UGUUAGCAAUAUUACGCAAC | -2.82 ± 0.44 | 

Sequence | self-splicing fitness (ln) (30 °C) | self-splicing fitness (ln) (37 °C)
GUCUAGCAAUAUUACGCGUG | -0.894 ± 0.058 | -0.777 ± 0.072
CAGUAGCAAUAUUACGGUGA | -4.04 ± 0.31 | -2.58 ± 0.24
AUUUAGCAAUAUUACGGGUA | -2.72 ± 0.3 | -1.17 ± 0.17
GCCGAGCAAUAUUACGUUGC | -3.96 ± 0.25 | -2.73 ± 0.22
ACGCAGCAAUAUUACGCCGG | -2 ± 0.11 | -0.692 ± 0.15
AGUUAGCAAUAUUACGGACU | -3.24 ± 0.28 | -1.03 ± 0.25
AUACAGCAAUAUUACGUAUA | -3.94 ± 0.26 | -2.49 ± 0.16
AAUCAGCAAUAUUACGGUAA | 0.0235 ± 0.065 | 0.0455 ± 0.063
CGGUAGCAAUAUUACGCGAU | -2.23 ± 0.35 | -2.41 ± 0.44
GUAAAGCAAUAUUACGACCU | 0.443 ± 0.18 | 0.00961 ± 0.19
AUCUAGCAAUAUUACGGUUC | -2.94 ± 0.32 | -2.34 ± 0.32
UGGUAGCAAUAUUACGCCCG | 0.0173 ± 0.14 | -0.718 ± 0.17
CGUCAGCAAUAUUACGUCCG | -1.03 ± 0.11 | -0.273 ± 0.14
GCAUAGCAAUAUUACGGUAU | -2.86 ± 0.16 | -1.75 ± 0.12
AAACAGCAAUAUUACGCUAG | -1.39 ± 0.095 | -1.12 ± 0.13
CAUGAGCAAUAUUACGCGGU | -4.59 ± 0.33 | -2.33 ± 0.21
AUGUAGCAAUAUUACGUAGU | -2.89 ± 0.18 | -1.42 ± 0.15
GGCGAGCAAUAUUACGCUAG | -3.88 ± 0.28 | -2.82 ± 0.23
CUAGAGCAAUAUUACGUAUA | -3.08 ± 0.49 | 
ACUCAGCAAUAUUACGUGAG | -1.55 ± 0.062 | -0.663 ± 0.082
ACGAAGCAAUAUUACGCUUU | -3.88 ± 0.22 | -2.63 ± 0.22
AUUGAGCAAUAUUACGACGC | -2.27 ± 0.22 | -2.35 ± 0.28
GUCAAGCAAUAUUACGAAGG | -4.64 ± 0.2 | -3.95 ± 0.36
UAGGAGCAAUAUUACGCUUG | -1.18 ± 0.32 | 0.65 ± 0.36
CGAAAGCAAUAUUACGGCCG | -1.64 ± 0.14 | -0.462 ± 0.21
UAAUAGCAAUAUUACGAGAG |  | -2.68 ± 0.3

Sequence | self-splicing fitness (ln) (30 °C) | self-splicing fitness (ln) (37 °C)
GUAGAGCAAUAUUACGAUGC | -0.0786 ± 0.15 | -0.434 ± 0.13
UUUAAGCAAUAUUACGGGAG | -1.75 ± 0.089 | -1.32 ± 0.1
CUGCAGCAAUAUUACGCUUA | -3.04 ± 0.29 | -3.98 ± 0.46
AUUCAGCAAUAUUACGCGAA | -1.9 ± 0.15 | -1.73 ± 0.17
AUCCAGCAAUAUUACGGGGU | -4.35 ± 0.18 | -2.19 ± 0.13
CAACAGCAAUAUUACGGGCC | -5.11 ± 0.46 | -1.48 ± 0.14
GUUAAGCAAUAUUACGAUUG | -3.09 ± 0.34 | -1.63 ± 0.34
CAAGAGCAAUAUUACGAGUA |  | -1.56 ± 0.27
GAUGAGCAAUAUUACGCACU | -2.71 ± 0.22 | -1.04 ± 0.2
CGGGAGCAAUAUUACGGCCU | -3.25 ± 0.31 | -2.88 ± 0.44
CUUCAGCAAUAUUACGACGA |  | -1.54 ± 0.37
UAACAGCAAUAUUACGGGGU | -4.16 ± 0.14 | -2.2 ± 0.12
GACGAGCAAUAUUACGUAGC | -4.54 ± 0.41 | -2.33 ± 0.25
UUGUAGCAAUAUUACGUGAU | -3.14 ± 0.17 | -1.01 ± 0.15
CGAAAGCAAUAUUACGGUCU | -0.258 ± 0.071 | -0.209 ± 0.089
CGUCAGCAAUAUUACGGUUU | -2.39 ± 0.098 | -1.97 ± 0.097
AACGAGCAAUAUUACGGACU | -1.88 ± 0.13 | -0.603 ± 0.21
UCGUAGCAAUAUUACGGCGG | -2.41 ± 0.14 | -0.883 ± 0.15
UGCCAGCAAUAUUACGGGAG | -2.75 ± 0.11 | -0.763 ± 0.1
CACCAGCAAUAUUACGACAU | -3.726 ± 0.018 | -2.66 ± 0.035
CAGUAGCAAUAUUACGGCAU | -4.45 ± 0.27 | -1.78 ± 0.18
GGCGAGCAAUAUUACGUCAG | -2.33 ± 0.31 | -3.08 ± 0.4
GAUAAGCAAUAUUACGCGAU |  | -2.82 ± 0.26
CUAGAGCAAUAUUACGUCUC | -3.75 ± 0.2 | -2.76 ± 0.25
UGAAAGCAAUAUUACGGAAG | -1.78 ± 0.11 | -1.15 ± 0.14
